The values below come from PMC8481289 (2021).

One assay deals with UBA5 Y372A (human, UniProt Q9GZZ9 1-404, Y372A). Nature of the assay: ITC.
The target in a further assay is UBA5 333–404 (human, UniProt Q9GZZ9 333-404). The assay can be described thus: ITC.
Sequence of UBA5 333–404 (Q9GZZ9 333-404): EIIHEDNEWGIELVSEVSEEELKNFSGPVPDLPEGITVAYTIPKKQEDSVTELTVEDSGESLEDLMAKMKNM

Sequence of UBA5 Y372A (Q9GZZ9 whole entry Y372A): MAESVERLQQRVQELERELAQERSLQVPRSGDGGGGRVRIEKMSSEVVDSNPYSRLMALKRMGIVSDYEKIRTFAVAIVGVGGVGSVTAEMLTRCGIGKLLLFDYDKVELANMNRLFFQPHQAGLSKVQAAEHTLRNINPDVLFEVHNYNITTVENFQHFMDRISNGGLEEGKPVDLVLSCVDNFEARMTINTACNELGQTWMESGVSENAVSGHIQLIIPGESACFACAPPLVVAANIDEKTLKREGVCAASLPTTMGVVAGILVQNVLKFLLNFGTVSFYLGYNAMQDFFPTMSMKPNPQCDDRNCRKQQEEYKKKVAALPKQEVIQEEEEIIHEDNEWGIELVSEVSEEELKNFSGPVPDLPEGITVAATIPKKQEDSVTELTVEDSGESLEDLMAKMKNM

B1: UFC1 (WT) (enzyme)
chain: MADEATRRVVSEIPVLKTNAGPRDRELWVQRLKEEYQSLIRYVENNKNADNDWFRLESNKEGTRWFGKCWYIHDLLKYEFDIEFDIPITYPTTAPEIAVPELDGKTAKMYRGGKICLTDHFKPLWARNVPKFGLAHLMALGLGPWLAVEIPDLIQKGVIQHKEKCNQ
Regarding B1, the values for the Kd with UBA5 Y372A and in the assay with UBA5 333–404 were 1900 nM and 2500 nM, respectively.
